Usually IC50 stands for the concentration needed to halve the response being measured.

Numbered stars: 1 amine (or outer) side, 2 acyl side, 3 side chain; on linkers, the order of the positions; unused ones are H or OH. Bridge positions count the residues as written; N and C are the ends. Side chains are listed from the residue outwards. Ends that are not written are not given here. * marks the point of attachment. C20 diacid = O=C(O)CCCCCCCCCCCCCCCCCCC(=O)*; γGlu = O=C(O)[C@H](CCC(=O)[*:2])N[*:1]

The target of assay [1] is T1, human calcitonin receptor (human, UniProt P30988 25-474).
T1 sequence (looked up): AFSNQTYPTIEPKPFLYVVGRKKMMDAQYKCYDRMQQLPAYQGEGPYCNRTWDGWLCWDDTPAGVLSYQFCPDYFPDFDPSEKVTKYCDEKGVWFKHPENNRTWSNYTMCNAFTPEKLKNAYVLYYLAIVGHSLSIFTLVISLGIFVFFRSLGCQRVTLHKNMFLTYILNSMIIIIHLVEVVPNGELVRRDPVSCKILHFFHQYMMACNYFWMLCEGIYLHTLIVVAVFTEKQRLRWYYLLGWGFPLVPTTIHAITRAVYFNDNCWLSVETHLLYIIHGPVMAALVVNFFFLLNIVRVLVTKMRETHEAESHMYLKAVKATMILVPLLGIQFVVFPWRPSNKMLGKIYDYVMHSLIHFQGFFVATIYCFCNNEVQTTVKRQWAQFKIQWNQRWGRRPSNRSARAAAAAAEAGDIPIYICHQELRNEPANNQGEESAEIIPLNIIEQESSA
Nature of the assay: cell-based or functional assay.

The target in assay [2] is T2, human amylin receptor (amylin 3(a) receptor: human calcitonin receptor with RAMP-3) (human, UniProt P30988 25-474; O60896 24-148, limits assumed).
T2 sequence (looked up) 1: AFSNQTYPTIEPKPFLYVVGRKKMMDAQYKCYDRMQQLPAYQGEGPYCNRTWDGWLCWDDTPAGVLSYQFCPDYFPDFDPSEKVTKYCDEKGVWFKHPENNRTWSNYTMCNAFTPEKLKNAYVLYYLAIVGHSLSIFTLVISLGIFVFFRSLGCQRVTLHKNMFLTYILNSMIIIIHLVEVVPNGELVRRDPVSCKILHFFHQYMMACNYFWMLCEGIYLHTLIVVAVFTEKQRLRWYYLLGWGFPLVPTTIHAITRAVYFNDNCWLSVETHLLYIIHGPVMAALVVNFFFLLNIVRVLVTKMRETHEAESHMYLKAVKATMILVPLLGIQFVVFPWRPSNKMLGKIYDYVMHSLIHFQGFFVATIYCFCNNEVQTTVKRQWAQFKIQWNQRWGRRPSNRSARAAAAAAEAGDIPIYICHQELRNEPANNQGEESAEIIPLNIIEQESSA
T2 sequence (looked up) 2: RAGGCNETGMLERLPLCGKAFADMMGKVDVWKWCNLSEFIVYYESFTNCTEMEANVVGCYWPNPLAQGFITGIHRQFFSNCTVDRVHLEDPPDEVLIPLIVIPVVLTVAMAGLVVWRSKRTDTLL
Nature of the assay: cell-based or functional assay.

For the next assay, the target named is T3, human amylin receptor (human, UniProt P30988 25-474; O60896 24-148, limits assumed).
T3 construct: whole, on cells; Assay used cell membranes of the Amylin 3(a)/CRE-luc BHK cells; the complex is called the human amylin receptor; also called hAmylin-R; hAmylinR
T3 sequence (looked up) 1: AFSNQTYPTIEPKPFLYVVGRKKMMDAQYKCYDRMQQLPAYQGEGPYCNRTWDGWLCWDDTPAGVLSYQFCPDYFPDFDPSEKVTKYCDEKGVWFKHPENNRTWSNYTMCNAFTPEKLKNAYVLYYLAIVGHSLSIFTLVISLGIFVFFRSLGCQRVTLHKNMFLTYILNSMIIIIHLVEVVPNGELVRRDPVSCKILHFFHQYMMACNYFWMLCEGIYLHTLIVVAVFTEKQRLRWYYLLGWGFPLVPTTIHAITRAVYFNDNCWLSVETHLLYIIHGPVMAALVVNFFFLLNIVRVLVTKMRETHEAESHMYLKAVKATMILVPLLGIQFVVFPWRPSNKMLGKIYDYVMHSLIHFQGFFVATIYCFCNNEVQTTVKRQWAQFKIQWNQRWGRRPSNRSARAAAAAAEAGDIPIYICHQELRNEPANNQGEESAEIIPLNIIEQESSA
T3 sequence (looked up) 2: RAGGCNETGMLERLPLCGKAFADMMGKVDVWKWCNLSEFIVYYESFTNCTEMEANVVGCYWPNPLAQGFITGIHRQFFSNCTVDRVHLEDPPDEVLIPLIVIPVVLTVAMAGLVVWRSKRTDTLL
Nature of the assay: SPA radioligand competition (125I-rat amylin), membranes of BHK cells with human calcitonin receptor + RAMP-3. As for the experimental part: The binding assay was performed using scintillation proximity assay (SPA) beads (RPNQ0001) from PerkinElmer and cell membranes from the Amylin 3(a)/CRE-luc cells (as described in Assay (II)) were used. Membranes were prepared in the following way; the cells were rinsed with PBS and incubated with Versene for approximately 5 min before harvesting. The cells were flushed with PBS and the cell-suspension was centrifuged for 5 min at 1000 rpm. Cells were homogenized (ultrathurrax) in a buffer containing 20 mM Na-HEPES and 10 mM EDTA (pH 7.4) and centrifuged at 20.000 rpm for 15 min. The resulting pellet was resuspended, homogenized and centrifuged (20.000 rpm, 15 min) in a buffer containing 20 mM Na-HEPES and 0.1 mM EDTA (pH 7.4, buffer 2). The resulting pellet was resuspended in buffer 2 and protein concentration was measured (BCA protein Assay, Pierce). The homogenate was kept cold during the whole procedure. The membranes were kept at −80° C. until use. The assay was performed in a 384 well Optiplate (PerkinElmer) in a total volume of 40 ul. Membranes were mixed with SPA beads. Final concentration of membranes 35 ng/μL final and SPA beads was 0.05 mg/well. Test-compounds were dissolved in DMSO and further diluted in assay buffer (50 mM Hepes, pH 7.4, 1 mM CaCl2, 5 mM MgCl₂, 0.1% OA and 0.02% Tween20). […] The final mixture was incubated with shaking at 400 rpm for 120 min at 25° C. prior to centrifugation (1500 rpm, 10 min). Samples were analyzed on TopCounter™ (Packard). The IC₅₀ was calculated using (one site binding competition analysis) GraphPad Prism5 as a measure of receptor affinity.
For orientation: Displacement assays read how much labelled ligand stays bound in the presence of the test substance.

The target of assay [3] is T4, human calcitonin receptor (human, UniProt P30988 25-474).
T4 construct: whole, on cells; Assay used cell membranes of the transfected BHK cells; also called hCTR; hCT
T4 sequence (looked up): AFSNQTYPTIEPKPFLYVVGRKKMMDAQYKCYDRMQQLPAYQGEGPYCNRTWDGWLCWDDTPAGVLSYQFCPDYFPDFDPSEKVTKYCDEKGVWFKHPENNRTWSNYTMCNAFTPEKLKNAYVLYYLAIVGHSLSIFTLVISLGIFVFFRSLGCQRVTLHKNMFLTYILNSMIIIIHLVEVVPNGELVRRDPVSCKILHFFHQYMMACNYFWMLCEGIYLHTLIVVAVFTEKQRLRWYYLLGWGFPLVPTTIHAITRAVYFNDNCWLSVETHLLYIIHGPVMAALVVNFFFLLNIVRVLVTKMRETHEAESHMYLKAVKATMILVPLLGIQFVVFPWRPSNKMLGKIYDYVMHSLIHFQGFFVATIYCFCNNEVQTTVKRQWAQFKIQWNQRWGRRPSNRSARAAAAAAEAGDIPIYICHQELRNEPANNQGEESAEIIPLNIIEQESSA
Nature of the assay: SPA radioligand competition (125I-calcitonin), membranes of BHK cells with human calcitonin receptor. The procedure, abridged:
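BHK hCTR membranes 35 ng/μL + SPA beads 0.05 mg/well; buffer 50 mM Hepes pH 7.4, 1 mM CaCl2, 5 mM MgCl₂, 0.1% OA, 0.02% Tween20. 120 min, 25° C., shaking. Scintillation count; IC50 by one-site binding competition.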

The target of assay [4] is T4, human calcitonin receptor. As to the kind of experiment: ratio IC50 hCTR / IC50 hAmylin-R of the two SPA competition assays; reference: human amylin receptor. Put shortly:
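IC₅₀ values were derived by one-site competition analysis of SPA counts. Cell membranes (35 ng/μL) with SPA beads were incubated with test compounds for 120 min at 25° C in Hepes buffer, pH 7.4, containing CaCl2, MgCl₂, OA and Tween20.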

B1: N^ε1-[(4S)-4-carboxy-4-[[(4S)-4-carboxy-4-(19-carboxynonadecanoylamino)butanoyl]amino]butanoyl]-[Glu14,Arg17,Pro21,Pro27,Arg34]-h-amylin (peptide)
peptide: K([γGlu-γGlu-C20 diacid])CNTATCATQRLAEFLRHSSPNFGAIPSSTNVGRNTY-NH2
modifications: disulfide 2-7; N-terminus assumed
SMILES: CC[C@H](C)[C@H](NC(=O)[C@H](C)NC(=O)CNC(=O)[C@H](Cc1ccccc1)NC(=O)[C@H](CC(N)=O)NC(=O)[C@@H]1CCCN1C(=O)[C@H](CO)NC(=O)[C@H](CO)NC(=O)[C@H](Cc1c[nH]cn1)NC(=O)[C@H](CCCNC(=N)N)NC(=O)[C@H](CC(C)C)NC(=O)[C@H](Cc1ccccc1)NC(=O)[C@H](CCC(=O)O)NC(=O)[C@H](C)NC(=O)[C@H](CC(C)C)NC(=O)[C@H](CCCNC(=N)N)NC(=O)[C@H](CCC(N)=O)NC(=O)[C@@H](NC(=O)[C@H](C)NC(=O)[C@@H]1CSSC[C@H](NC(=O)[C@@H](N)CCCCNC(=O)CC[C@H](NC(=O)CC[C@H](NC(=O)CCCCCCCCCCCCCCCCCCC(=O)O)C(=O)O)C(=O)O)C(=O)N[C@@H](CC(N)=O)C(=O)N[C@@H]([C@@H](C)O)C(=O)N[C@@H](C)C(=O)N[C@@H]([C@@H](C)O)C(=O)N1)[C@@H](C)O)C(=O)N1CCC[C@H]1C(=O)N[C@@H](CO)C(=O)N[C@@H](CO)C(=O)N[C@H](C(=O)N[C@@H](CC(N)=O)C(=O)N[C@H](C(=O)NCC(=O)N[C@@H](CCCNC(=N)N)C(=O)N[C@@H](CC(N)=O)C(=O)N[C@H](C(=O)N[C@@H](Cc1ccc(O)cc1)C(N)=O)[C@@H](C)O)C(C)C)[C@@H](C)O
notes: also called compound 88
Consider B1, for which the “Ratio hCT/hAmylin funct.” value in assay [1] was found to be 8.5 ratio. Besides, the “hAmylin-R funct. EC50 (pM)” value in assay [2] came out at 773 pM.

B2: N^α1 N^α1-[(4S)-4-carboxy-4-[[(4S)-4-carboxy-4-(19-carboxynonadecanoylamino)butanoyl]amino]butanoyl]-[Glu14,Arg17,Pro21,Pro27]-h-amylin (peptide)
peptide: {C20 diacid-γGlu-γGlu}-KCNTATCATQRLAEFLRHSSPNFGAIPSSTNVGSNTY-NH2
modifications: disulfide 2-7
SMILES: CC[C@H](C)[C@H](NC(=O)[C@H](C)NC(=O)CNC(=O)[C@H](Cc1ccccc1)NC(=O)[C@H](CC(N)=O)NC(=O)[C@@H]1CCCN1C(=O)[C@H](CO)NC(=O)[C@H](CO)NC(=O)[C@H](Cc1c[nH]cn1)NC(=O)[C@H](CCCNC(=N)N)NC(=O)[C@H](CC(C)C)NC(=O)[C@H](Cc1ccccc1)NC(=O)[C@H](CCC(=O)O)NC(=O)[C@H](C)NC(=O)[C@H](CC(C)C)NC(=O)[C@H](CCCNC(=N)N)NC(=O)[C@H](CCC(N)=O)NC(=O)[C@@H](NC(=O)[C@H](C)NC(=O)[C@@H]1CSSC[C@H](NC(=O)[C@H](CCCCN)NC(=O)CC[C@H](NC(=O)CC[C@H](NC(=O)CCCCCCCCCCCCCCCCCCC(=O)O)C(=O)O)C(=O)O)C(=O)N[C@@H](CC(N)=O)C(=O)N[C@@H]([C@@H](C)O)C(=O)N[C@@H](C)C(=O)N[C@@H]([C@@H](C)O)C(=O)N1)[C@@H](C)O)C(=O)N1CCC[C@H]1C(=O)N[C@@H](CO)C(=O)N[C@@H](CO)C(=O)N[C@H](C(=O)N[C@@H](CC(N)=O)C(=O)N[C@H](C(=O)NCC(=O)N[C@@H](CO)C(=O)N[C@@H](CC(N)=O)C(=O)N[C@H](C(=O)N[C@@H](Cc1ccc(O)cc1)C(N)=O)[C@@H](C)O)C(C)C)[C@@H](C)O
notes: Synthetic analogue; also called compound 15
For B2, the IC50 with human amylin receptor was 0.597 nM; in assay [3], 15.5 nM. For the same molecule, the “Ratio hCT/hAmylin binding” value in assay [4] turned out to be 26.

B3: N^α1-[(4S)-4-carboxy-4-(19-carboxynonadecanoylamino)butanoyl]-[Arg17,Pro21,Pro27,Lys35]-h-amylin (peptide)
peptide: KCNTATCATQRLANFLRHSSPNFGAIPSSTNVGSKTY
modifications: C20 diacid-gGlu on the alpha amino group of the N-terminal residue (Lys1); disulfide Cys2-Cys7; C-terminal amide
notes: Synthetic analogue; also called compound 34
Regarding B3, the IC50 is 1.14 nM in the assay with human amylin receptor and 73.4 nM in assay [3]. The “Ratio hCT/hAmylin binding” value in assay [4] is 64.4.

Source of the values: US20140087995A1 (published 2014).
